This is an account of results in the nanobody polyreactivity screen of Harvey et al. (2022).

The data set is described as follows: yeast display, Sf9 membrane polyspecificity reagent, FACS + sequencing; frameworks hold sequencing errors. Summed up: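 Nanobodies came from a synthetic yeast display library in Saccharomyces cerevisiae BJ5465, induced with galactose for 36–48 hours and stained for 1 hour at 4 °C with 10% biotinylated, detergent-solubilized Sf9 membrane reagent. Cells were enriched on streptavidin microbeads and then FACS-sorted, with low and high (top ~1%) gates set on anti-HA fluorescence for expression and streptavidin fluorescence for reagent binding. Each polyreactivity label reflects the gate a clone came from. Genes were amplified by colony PCR, sequenced by MiSeq 2 × 250 and filtered by CDR length.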
Turning to “QVQLVESGGGLVQAGGSLRLSCAASGFIFYRNPMGWYRQAPGKEREFVAAIRGRGGATYYADSVKGRFTISRDNAKITVYLQMNSLKREDTAVYYCAADTRPGYSGFEYWGQGTQVTVSS”, the “polyreactivity (PSR sort gate)” value was “high polyreactivity”.

As for “QVQLEESGGGLVQAGGSLRLSCAASGSTFRAYAMGWYRQAPGKERELVAAITSTTDTYYADSVKGRFTISRDNAKNTVYLQMNSLKPEDTAVYYCASVWVWTYDYWGQGTQVTVSS”, the “polyreactivity (PSR sort gate)” value is on record as “low polyreactivity”. Consider “QIQLVESGGGFVQAGGSLRLSCAASGFTFHYYAMGWYSQAPGKERELGAAISWSSGRTYYADSVKGRFTISRDNAQNTVYLQMNSLKPEDTAVYSCAASSYNRGDYWGQGTQVTVSS”, for which the “polyreactivity (PSR sort gate)” value is on record as “low polyreactivity”. “QVQLVETGGGLVQAGGSLRLSCAASGITFVYYAMGWYRQAPGKERELVPSISSADNTNYADSVKGRFTISRDNAKNTVYLQMNSLKPEDTAVYYCAADFCWHLRHDSTGGYWGQGTQVTVSS”: the “polyreactivity (PSR sort gate)” value is reported as “low polyreactivity”.

On to “QVQLVESGGGLVQAGGSLRLSCAASGSIFRYYVMGWYRQAPGKERELVASITGSGGSTYYADSLKGRFTISRDNAKNTVYLQMNSLKPEDTAVYYCAASYRMRYGYWGQGTQVTVSS”, for which the “polyreactivity (PSR sort gate)” value is recorded as “high polyreactivity”. In the case of “QVQLVESGGGLVQAGGSLRLSCAASGRIFRYYAMGWYRQAPGKERELVAAIRYRSGGTYYADSVKGRFTISRDNAKNTVYLQMNCLKPEDTAVYYCNADKRLRGHGYDYWGQGTQVTVSS” it was “high polyreactivity”; in that of “QVQLVESGGGLVQAGGSLRLSCAASGRTFGVNAMGWYRQAPGKERELVARIRVSGGRTYYADSVKGLFTISRDNAKNTVYLQMNSLKPEDTAVYYCNAGYTYNRVIWPYYYWGQGTQVTVSS”, “high polyreactivity”. Take “QVQLVESGGGLVQAGGSLRLSCAASGSTFDPYAMGWSRQAPGKEREMVAAISTSVGGTYYADSVKGRFTISRDYAKNTVNLQMNSLKPEDTAVYYCAVDYSDVQAYTSNEEDYWGQGTQVTVSS”: the “polyreactivity (PSR sort gate)” value was “low polyreactivity”.

On to “QVQIEESGGVLVQAGGSLRLSCAASGSIFQPYALGWYRQAPGKERELVAAISSSGGSTTYADSVKGRFTISRDIAKNTVYLQMNSLKPEDTAVYYCAADSADDMGYWGQGTQVTVSS”, for which the “polyreactivity (PSR sort gate)” value is reported as “low polyreactivity”. On to “QVQLVESGGGLVQAGGSLRLSCAASGFTFGGNAMGWYRQAPGKEREFVAAITRSGGSTYYADSVKGRFTISRDNAKNTVYLQMHSLKPEDTAVYYCAARRSYPLGYDYWGQGTQVTVSS”, for which the “polyreactivity (PSR sort gate)” value is reported as “high polyreactivity”. In the case of “QVQLEESGGGLVQAGGSLRLSCAASGRIFFKYSMGWYRQAPGKERELVATISSSTGSTYYADSVKGRFTISRDNAKNTDYLQMNSLKPEDTAVYYCNARVRTQQRWVDYWGQGTQVTVSS” it was “high polyreactivity”; in that of “QVQLVESGGGLVQAGGSLRLSCAASGSTYEIYAMGWYRQAPGKDRELVAAISSGGSTNYADSVKGRFTISRDNAKNTVYLQMNSLKPEDTAVYYCVYAIQFDYWGQGTQVTVSS”, “low polyreactivity”. With “QVQLVESGGRLVQAGGSLRLTCAASGSTFTTYAMGWSRQAPGKERELVAAITSGSSTNYADSVKGRFTISRDNAKNTVYLQMNSLKPEDTAVYYCAVDREWPGYYYAISKMYYWGQGTQVTVSS”, the “polyreactivity (PSR sort gate)” value is listed as “low polyreactivity”. As for “QVQLVESGGGLVQAGGSLRLSCAASGRTFGYYAMGWYRQAPGKERELVAAISSRSSTTYYADSVKGRFTISRDNAKNTVYLQMNSLKTEDNAVYYCNVAYGEWKTFDYWGQGTQVTVSS”, the “polyreactivity (PSR sort gate)” value was “high polyreactivity”. “QVQLVESGGGIVQAGGSLRLSCAASGRTFAGNAMGWYRQAPGKERELVAAISQGGGSTYYADSVKGRFTISRDNAKNTVYLQMNSLKPEDTAVYYCAAEIPRRWASFATLWYDYWGQGTQVTVSS”: the “polyreactivity (PSR sort gate)” value is recorded as “low polyreactivity”.

With “QVQLVESGGGLVQAGGSLRLSCAASGRPFKPYAMGWYRPAPGKERELVAVISSTGSTKYADSVKGRFTISRDNAKNTVYLQMNSLKPEDTAVYYCNAGSLYSDRWVKRKYDYSGQGTQVTVSS”, the “polyreactivity (PSR sort gate)” value is reported as “high polyreactivity”.
